Data on 1 molecule can be found in publication PMC10986557, “Inhibition of SARS-CoV-2 replication by a ssDNA aptamer targeting the nucleocapsid protein”.

This series concerns the target Nucleocapsid (N) protein (SARS-CoV-2 original strain, UniProt P0DTC9 1-419). The series can be described thus: flow cytometry (bead-immobilized protein); 1x SB. The note with it: protein: recombinant; tags: His6 (pET28a); chain copies: 2. A general note: A flow cytometer gives signals particle by particle.

B1: N-Apt17 (ssDNA)
DNA: GCTGGATGTTCATGCTGGCAAAAGGTGTCACTCCATTCCTTAGGGGCACCGGAAGCATCTCTTTACTTTGACACATCCAGC
Consider B1, for which the binding result was “binds”.
